Changes are numbered by the printed parent chain. Blank lines part the entries; values can stand above or below the molecule they belong to.
Experiments:
[1] = target: YFP-Harmonin-a PDZ3c (human) (UniProt Q9Y6N9); test: MST; YFP-fused partner constant at 100 nM, non-fluorescent protein titrated (16 two-fold dilutions); 20 mM Hepes pH 7.0, 100 mM NaCl, 1 mM EGTA, 0.5 mM TCEP, 0.05% Tween 20; Monolith NT.115
[2] = target: YFP-ANKS4B_(CEN-PBM) (human) (UniProt Q8N8V4); test: as above
YFP-SANS_(CEN-PBM) = YFP-SANS_(CEN-PBM) (UniProt Q495M9); test: as above
Myosin 7a MF1.SH3 = target: T1, Myosin 7a MF1.SH3 (human, UniProt Q13402-1 991-1692, residues 1523-1560 were deleted from MF1); test: as above; settings: both partners purified
T1 construct: Myosin 7a, human, N-terminal MyTH4-FERM domain and SH3, residues 991-1692 of UniProt Q13402-1; residues 1523-1560 deleted; Thrombin site of the vector replaced by an SSG linker; also called M7a MF1.SH3; Myo7a MF1.SH3; source: E. coli (BL21-AI, BL21 (DE3) Rosetta or BL21-Gold (DE3)), purified (Histrap, CaptoQ, gel filtration)
T1 sequence (looked up): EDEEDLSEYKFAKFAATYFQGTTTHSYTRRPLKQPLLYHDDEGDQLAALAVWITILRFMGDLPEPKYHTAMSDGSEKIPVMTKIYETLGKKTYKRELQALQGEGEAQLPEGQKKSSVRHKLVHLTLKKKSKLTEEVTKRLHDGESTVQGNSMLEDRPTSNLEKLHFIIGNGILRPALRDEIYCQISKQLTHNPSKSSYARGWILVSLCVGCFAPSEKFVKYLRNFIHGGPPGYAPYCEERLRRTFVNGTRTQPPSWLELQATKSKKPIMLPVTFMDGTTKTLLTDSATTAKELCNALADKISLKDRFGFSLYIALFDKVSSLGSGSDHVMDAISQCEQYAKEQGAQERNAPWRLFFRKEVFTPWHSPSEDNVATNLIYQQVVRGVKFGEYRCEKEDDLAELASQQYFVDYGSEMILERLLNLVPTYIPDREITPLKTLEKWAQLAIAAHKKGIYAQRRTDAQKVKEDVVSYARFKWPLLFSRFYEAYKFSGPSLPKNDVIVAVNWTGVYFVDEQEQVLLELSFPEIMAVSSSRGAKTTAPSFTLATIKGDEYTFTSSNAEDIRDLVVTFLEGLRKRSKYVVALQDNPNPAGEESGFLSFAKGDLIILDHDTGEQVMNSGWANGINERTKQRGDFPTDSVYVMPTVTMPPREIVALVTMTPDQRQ

Myosin 7b MF1.SH3 A1128E = target: T2, Myosin 7b MF1.SH3 A1128E (human, UniProt Q6PIF6 958-1586, A1128E); test: as above; settings: both partners purified
T2 construct: Myosin 7b, human, MF1.SH3, residues 958-1586 of UniProt Q6PIF6; also called M7b MF1.SH3 A1128E; source: E. coli, purified similarly as wild type (Histrap, CaptoQ, gel filtration)
T2 sequence: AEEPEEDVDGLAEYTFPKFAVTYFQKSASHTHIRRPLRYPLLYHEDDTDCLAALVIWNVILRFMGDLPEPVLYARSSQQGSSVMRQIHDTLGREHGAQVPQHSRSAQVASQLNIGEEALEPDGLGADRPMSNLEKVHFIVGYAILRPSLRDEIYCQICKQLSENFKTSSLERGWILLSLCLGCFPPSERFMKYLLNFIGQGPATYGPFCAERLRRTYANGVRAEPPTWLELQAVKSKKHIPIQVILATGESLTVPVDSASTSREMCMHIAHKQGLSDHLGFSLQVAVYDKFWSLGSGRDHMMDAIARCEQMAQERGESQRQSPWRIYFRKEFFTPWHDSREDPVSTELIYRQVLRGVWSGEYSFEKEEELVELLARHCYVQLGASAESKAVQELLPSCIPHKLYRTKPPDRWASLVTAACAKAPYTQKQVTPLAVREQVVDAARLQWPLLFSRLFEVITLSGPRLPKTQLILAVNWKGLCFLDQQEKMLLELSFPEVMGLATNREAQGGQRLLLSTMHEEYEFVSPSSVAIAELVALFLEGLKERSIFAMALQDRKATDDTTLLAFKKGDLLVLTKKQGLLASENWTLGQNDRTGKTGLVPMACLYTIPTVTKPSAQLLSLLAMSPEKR

Harmonin NPDZ1.PDZ2 = target: T3, Harmonin NPDZ1.PDZ2 (human, UniProt Q9Y6N9-1 1-301); test: as above; settings: both partners purified
T3 construct: Harmonin-a1 (USH1C), human, N-terminal domain, PDZ1 and PDZ2, residues 1-301 of UniProt Q9Y6N9-1; source: E. coli BL21 (DE3) Rosetta, purified (Glutathione Sepharose 4B, size-exclusion chromatography)
T3 sequence (looked up): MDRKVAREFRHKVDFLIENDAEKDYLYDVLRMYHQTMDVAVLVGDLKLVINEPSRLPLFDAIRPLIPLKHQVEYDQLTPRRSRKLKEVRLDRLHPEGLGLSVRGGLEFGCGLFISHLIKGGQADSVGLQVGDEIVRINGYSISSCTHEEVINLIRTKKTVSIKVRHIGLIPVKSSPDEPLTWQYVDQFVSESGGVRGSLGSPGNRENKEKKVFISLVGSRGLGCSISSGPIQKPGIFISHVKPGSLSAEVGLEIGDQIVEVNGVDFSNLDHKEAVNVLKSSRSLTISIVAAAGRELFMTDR

Myosin 7b MF1.SH3 = target: T4, Myosin 7b MF1.SH3 (human, UniProt Q6PIF6 958-1586); test: as above; settings: both partners purified
T4 construct: also called M7b MF1.SH3; Myo7b MF1.SH3; source: E. coli (BL21-AI, BL21 (DE3) Rosetta or BL21-Gold (DE3)), purified (Histrap, CaptoQ, gel filtration)
T4 sequence: T2 sequence with E171A

[3] = target: T5, Full length (FL)-harmonin (harmonin-a1) (human, UniProt Q9Y6N9-1 1-552); test: MST; as a1 but 150 mM NaCl (for FL-Harmonin-a); YFP-fused partner constant at 100 nM, non-fluorescent protein titrated; settings: both partners purified
T5 construct: Harmonin-a1 (USH1C), human, residues 1-552 of UniProt Q9Y6N9-1; also called FL-harmonin-a; source: E. coli BL21 (DE3) Rosetta, purified (Glutathione Sepharose 4B, size-exclusion chromatography)
T5 sequence (looked up): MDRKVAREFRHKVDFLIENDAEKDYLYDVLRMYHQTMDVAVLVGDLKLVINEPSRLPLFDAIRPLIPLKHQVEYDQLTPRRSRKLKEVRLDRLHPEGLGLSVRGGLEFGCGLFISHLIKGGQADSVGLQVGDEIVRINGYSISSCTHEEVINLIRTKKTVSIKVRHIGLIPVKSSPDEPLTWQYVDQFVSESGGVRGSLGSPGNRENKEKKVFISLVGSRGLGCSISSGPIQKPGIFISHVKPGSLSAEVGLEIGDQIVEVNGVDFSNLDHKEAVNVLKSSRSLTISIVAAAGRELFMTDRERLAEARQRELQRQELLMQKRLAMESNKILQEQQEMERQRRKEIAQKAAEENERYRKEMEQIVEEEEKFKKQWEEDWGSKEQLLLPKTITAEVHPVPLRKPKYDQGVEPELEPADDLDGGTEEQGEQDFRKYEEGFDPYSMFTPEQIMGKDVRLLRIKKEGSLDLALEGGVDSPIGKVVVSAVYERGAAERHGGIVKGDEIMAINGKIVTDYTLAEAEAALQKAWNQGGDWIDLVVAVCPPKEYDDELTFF

Kd [1]: > 100 µM
Molecule: Myosin 7b MF2 R1921E-F1923V (from UniProt Q6PIF6 1605-2116) (domain or fragment)

Kd [2]: 3.1 µM
Kd (YFP-SANS_(CEN-PBM)): 6.6 µM
Molecule: Myosin 7b MF1.SH3 K1194E-K1195E R1171E-R1172E (from UniProt Q6PIF6 958-1586) (domain or fragment)

Kd (Myosin 7a MF1.SH3): 4.9 ± 0.7 µM
Kd (Myosin 7b MF1.SH3 A1128E): 13.1 ± 0.7 µM
Kd (Harmonin NPDZ1.PDZ2): 0.009 µM
Kd (Myosin 7b MF1.SH3): 4.3 ± 0.8 µM
B1: YFP-ANKS4B_(CEN-PBM) (domain or fragment, human, UniProt Q8N8V4 259-417, looked up)
chain: SVHHESILNRPGLGSIVFRRNRISSPEDISDSKREFGFKLPSELLQRQGASEADEGAADEEGEENGLKDDLPWDDDEVEWEEDVVDATPLEVFLLSQHLEEFLPIFKREQIDLEALLLCSDEDLQSIQMQLGPRKKVLNAINRRKQVLQQPGQLVDTSL
notes: ANKS4B, human, CEN regions, SAM domain and PBM, residues 259-417 of UniProt Q8N8V4; source: E. coli (BL21-AI, BL21 (DE3) Rosetta or BL21-Gold (DE3)), purified (Histrap, CaptoQ, gel filtration); not shown: YFP, N-terminal, kept

Kd (Myosin 7a MF1.SH3): 0.13 ± 0.02 µM
Kd (Myosin 7b MF1.SH3 A1128E): 18.2 ± 2.8 µM
Kd (Harmonin NPDZ1.PDZ2): 0.017 µM
Kd (Myosin 7b MF1.SH3): 5.4 ± 1.6 µM
B2: YFP-SANS_(CEN-PBM) (domain or fragment, UniProt Q495M9 300-461, looked up)
chain: DSGHDSLFTRPGLGTMVFRRNYLSSGLHGLGREDGGLDGVGAPRGRLQSSPSLDDDSLGSANSLQDRSCGEELPWDELDLGLDEDLEPETSPLETFLASLHMEDFAALLRQEKIDLEALMLCSDLDLRSISVPLGPRKKILGAVRRRRQAMERPPALEDTEL
notes: The full-length SANS gene was synthesised; source: E. coli (BL21-AI, BL21 (DE3) Rosetta or BL21-Gold (DE3)), purified (Histrap, CaptoQ, gel filtration); not shown: YFP, N-terminal, kept

Kd [3]: 2.5 µM
B3: YFP-FL-harmonin-ΔCter (domain or fragment, human, UniProt Q9Y6N9-1 1-542, looked up)
chain: MDRKVAREFRHKVDFLIENDAEKDYLYDVLRMYHQTMDVAVLVGDLKLVINEPSRLPLFDAIRPLIPLKHQVEYDQLTPRRSRKLKEVRLDRLHPEGLGLSVRGGLEFGCGLFISHLIKGGQADSVGLQVGDEIVRINGYSISSCTHEEVINLIRTKKTVSIKVRHIGLIPVKSSPDEPLTWQYVDQFVSESGGVRGSLGSPGNRENKEKKVFISLVGSRGLGCSISSGPIQKPGIFISHVKPGSLSAEVGLEIGDQIVEVNGVDFSNLDHKEAVNVLKSSRSLTISIVAAAGRELFMTDRERLAEARQRELQRQELLMQKRLAMESNKILQEQQEMERQRRKEIAQKAAEENERYRKEMEQIVEEEEKFKKQWEEDWGSKEQLLLPKTITAEVHPVPLRKPKYDQGVEPELEPADDLDGGTEEQGEQDFRKYEEGFDPYSMFTPEQIMGKDVRLLRIKKEGSLDLALEGGVDSPIGKVVVSAVYERGAAERHGGIVKGDEIMAINGKIVTDYTLAEAEAALQKAWNQGGDWIDLVVAVCPP
notes: Harmonin-a1 (USH1C), human, residues 1-542 of UniProt Q9Y6N9-1; also called ^YFPFL ΔCter; source: E. coli BL21 (DE3) Rosetta, purified (Glutathione Sepharose 4B, size-exclusion chromatography)
